In the data set the test system is gelatin.

For the substance “279Arg rare variant of MMP-9 (matrix metalloproteinase-9)”, the “MMP-9 activity by zymography (gelatin in the polyacrylamide gel)” value was “Activity in both lanes 1 and 2 of FIG. 4 is similar”.

Consider “279Gln common variant of MMP-9 (matrix metalloproteinase-9)”, for which the “MMP-9 activity by zymography (gelatin in the polyacrylamide gel)” value was “Activity in both lanes 1 and 2 of FIG. 4 is similar”.

Values taken from patent publication US20070037156.
